Where “and” joins values, the source holds several entries; their conditions need not be identical. Identical values can stand only once.
Columns and labels:
[1] = Glass transition and decomposition temperature (DSC, DMA, TGA); type: physicochemical
Method: In this Example, experiments performed to determine the glass transition temperature (Tg) and decomposition temperature of SELP47K. (Example 1) are described. Approximately 10 mg of SELP47K material was crimped in an aluminum (Al) pan, cooled to <−150° C., then heated to >200° C. at 10° C./min under a He (helium) atmosphere. […] This initially appeared to be followed by another endothermic region and the analysis was stopped near 225° C. […] Another sample of material was examined by TGA and found to have mass loss (−8%) from room temperature to approximately 200° C., confirming the broad endotherm observed with the first sample.
A strip of SELP47K was examined by using a dynamic mechanical analyzer (DMA) over the range of −150 to 200° C. […] Another DSC sample was run, pre-heating at 100° C. for 1 hour initially to remove volatiles. The mass loss endotherm was mostly removed, and a transition at 188° C. (half-height) remained. This run was stopped and the sample cooled and examined.

[2] = Tensile mechanical properties of films (INSTRON Model 5564); type: physicochemical
Method: In this Example, experiments performed to determine tensile mechanical properties of SELP47K (Example 1 and 2) are described. Samples of SELP47K were prepared by freeze-drying purified SELP47K solution. The subsequent powder was re-dissolved in water to a solids concentration of approximately 5, 10 or 20%. These solutions were then mixed with plasticizers to an effective concentration of 1-3%. Plasticizers included in this study were polyethylene glycol 200, glycerin, and triethanolamine. Eleven milliliters of these solutions were poured into a large (6 inch square) polyethylene weigh boats and the solutions were allowed to dry either in an oven at 37° C. or room temperature for 1 to 3 days. Subsequent films were successfully peeled from the weigh boat with a spatula without any damage to the polymer film.
The films were then cut into tensile specimens using a very sharp fabric cutting wheel. The specimens were approximately 6 cm long and 2.5 cm wide. The gauge length for these samples (length of sample between tensile testing clamps) was set to 3 cm and the thickness of the sample was measured at 5 points along the gauge length using a digital thickness coating instrument. The thickness of the samples was recorded as the average of the 5 points and varied from 46.4 to 188.2 microns. Both the sample width and sample thickness were entered into an Instron software program (Merlin) to enable it to calculate the tensile strength and tensile modulus.
The samples were loaded into the jaws of an INSTRON® Model 5564 apparatus making sure the gauge length was always set to 3 cm and that the sample was not under any static load or stress. […] The results of the stress-strain measurements can be seen for four of the samples in FIG. 1. The elongation % of SELP47K was determined to be 8.4 for 20% SELP47K solution film made at room temperature (RM). The tensile strength was determined to be 65.9 megapascals (MPa), and the tensile modulus was determined to be 1716.50 MPa. The results of plastisizer-SELP47K films reveal strong correlation between concentration and mechanical properties measured. For 3% PEG200 containing SELP47K, the films elongation % reached 541.

[3] = Example 1 Material [GC2596-26-A], film from 05% sol., 37 C.
[4] = Example 1 Material [GC2596-26-A], film from 05% sol., RM
[5] = Example 1 Material [GC2596-26-A], film from 10% sol., 37 C.
[6] = Example 1 Material [GC2596-26-A], film from 10% sol., RM
[7] = Example 1 Material [GC2596-26-A], film from 20% sol., 37 C.
[8] = Example 1 Material [GC2596-26-A], film from 20% sol., RM
[9] = Example 2 Material [GC2596-26-B], film from 10% sol., 37 C.

Substance: SELP47K: silk-elastin repeat sequence protein copolymer, head-[(GAGAGS)2(GVGVP)3GKGVP(GVGP)4(GAGAGS)2]13-tail (SEQ ID NO:19), 886 amino acids
- decomposition temperature [1]: 332 °C
- glass transition ([1]; film material, DMA/DSC): approximately 189 °C
- Tensile Strain [2, 3]: 2.6%
- Tensile Strength [2, 3]: 19.83 MPA
- Tensile Strain [2, 4]: 2.4%
- Tensile Strength [2, 4]: 21.43 MPA
- Tensile Strain [2, 5]: 3.6%
- Tensile Strength [2, 5]: 62.06 MPA
- Tensile Strain [2, 6]: 3.5%
- Tensile Strength [2, 6]: 62.98 MPA
- Tensile Strain [2, 7]: 8.6%
- Tensile Strength [2, 7]: 74.14 MPA
- Tensile Strain (elongation %) [2, 8]: 8.4%
- Tensile Strength [2, 8]: 65.9 MPA and 65.90 MPA
- Tensile Strain [2, 9]: 6.98%
- Tensile Strength [2, 9]: 39.34 MPA
- tensile modulus ([2]; film from 20% SELP47K solution made at room temperature (RM)): 1716.50 MPa

Source: US20130059772A1, “Use of Repeat Sequence Protein Polymers in Personal Care Compositions” (DANISCO US INC., priority 2003, published 2013)
